Laboratory results as given in publication PMC11408855, “The structure of the SufS–SufE complex reveals interactions driving protected persulfide transfer in iron-sulfur cluster biogenesis” (The Journal of Biological Chemistry, 2024).

B1: EcSufS, untagged (wild type) (enzyme, Escherichia coli)
chain: MIFSVDKVRADFPVLSREVNGLPLAYLDSAASAQKPSQVIDAEAEFYRHGYAAVHRGIHTLSAQATEKMENVRKRASLFINARSAEELVFVRGTTEGINLVANSWGNSNVRAGDNIIISQMEHHANIVPWQMLCARVGAELRVIPLNPDGTLQLETLPTLFDEKTRLLAITHVSNVLGTENPLAEMITLAHQHGAKVLVDGAQAVMHHPVDVQALDCDFYVFSGHKLYGPTGIGILYVKEALLQEMPPWEGGGSMIATVSLSEGTTWTKAPWRFEAGTPNTGGIIGLGAALEYVSALGLNNIAEYEQNLMHYALSQLESVPDLTLYGPQNRLGVIAFNLGKHHAYDVGSFLDNYGIAVRTGHHCAMPLMAYYNVPAMCRASLAMYNTHEEVDRLVTGLQRIHRLLG
modifications: PLP (pyridoxal 5'-phosphate) cofactor
notes: EcSufS, cysteine desulfurase SufS of Escherichia coli, UniProt P77444; Untagged version used for crystallography and with the EcSufE variants; In samples with cysteine the active site cysteine is thought to carry a persulfide; also called SufSA; SufSB

What was measured:
SufE (Escherichia coli) = SufE (Escherichia coli) (UniProt P76194); test: fluorescence polarization; conditions: cited from earlier work
[1] = molecular target: B1; test: fluorescence polarisation; 100 nM BODIPY-FL-labeled EcSufE titrated with EcSufS; 50 mM Mops pH 8.0, 150 mM NaCl, 0.1 mg/ml bovine serum albumin, 25 °C, 30 min; absence of cysteine; apparent KD; conditions: both partners purified
[2] = molecular target: B1; test: fluorescence polarisation; 100 nM BODIPY-FL-labeled EcSufE titrated with EcSufS; 50 mM Mops pH 8.0, 150 mM NaCl, 0.1 mg/ml bovine serum albumin, 25 °C, 30 min; presence of 500 μM cysteine; apparent KD; conditions: both partners purified
[3] = molecular target: B1; test: crystal structure; 230 μM SufS, 230 μM SufE (C51A, E107C) and 2 mM Cys; sitting drop vapor diffusion, PEG2000 MME, 0.1 M KSCN, 20 °C; conditions: both partners purified
[4] = molecular target: the molecule itself; test: as above

Molecule | Kd [1] [nM] | Kd [2] [nM] | also measured
SufS (from UniProt P77444) |  |  | Kd (SufE (Escherichia coli)): 5000 nM
BODIPY-FL-labeled T116A EcSufE in the C51A/E107C background (natural protein, Escherichia coli, BODIPY-FL maleimide label (labeling efficiency 60 to 80%), EcSufE of Escherichia coli, UniProt P76194, with C51A, E107C and T116A; also called T116A SufE; source: E. coli BL21(DE3)Δsuf, pET21, purified, labeled with BODIPY-FL maleimide) MALLPDKEKLLRNFLRCANWEEKYLYIIELGQRLPELRDEDRSPQNSIQGAQSQVWIVMRQNAQGIIELQGDSDAAIVKGLIAVVFILYDQMTPQDIVNFDVRPWFCKMALTQHLAPSRSQGLEAMIRAIRAKAAALS | 2300 | 800 | 
BODIPY-FL-labeled T116S EcSufE in the C51A/E107C background (natural protein, Escherichia coli, BODIPY-FL maleimide label (labeling efficiency 60 to 80%), EcSufE of Escherichia coli, UniProt P76194, with C51A, E107C and T116S; also called T116S SufE; source: E. coli BL21(DE3)Δsuf, pET21, purified, labeled with BODIPY-FL maleimide) MALLPDKEKLLRNFLRCANWEEKYLYIIELGQRLPELRDEDRSPQNSIQGAQSQVWIVMRQNAQGIIELQGDSDAAIVKGLIAVVFILYDQMTPQDIVNFDVRPWFCKMALTQHLSPSRSQGLEAMIRAIRAKAAALS | 2200 | 3100 | 
BODIPY-FL-labeled R119A EcSufE in the C51A/E107C background (natural protein, Escherichia coli, BODIPY-FL maleimide label (labeling efficiency 60 to 80%), EcSufE of Escherichia coli, UniProt P76194, with C51A, E107C and R119A; also called R119A SufE; R119A EcSufE (in double mutant background); source: E. coli BL21(DE3)Δsuf, pET21, purified, labeled with BODIPY-FL maleimide) MALLPDKEKLLRNFLRCANWEEKYLYIIELGQRLPELRDEDRSPQNSIQGAQSQVWIVMRQNAQGIIELQGDSDAAIVKGLIAVVFILYDQMTPQDIVNFDVRPWFCKMALTQHLTPSASQGLEAMIRAIRAKAAALS | 300 | 500 | 
BODIPY-FL-labeled R119K EcSufE in the C51A/E107C background (natural protein, Escherichia coli, BODIPY-FL maleimide label (labeling efficiency 60 to 80%), EcSufE of Escherichia coli, UniProt P76194, with C51A, E107C and R119K; also called R119K SufE; source: E. coli BL21(DE3)Δsuf, pET21, purified, labeled with BODIPY-FL maleimide) MALLPDKEKLLRNFLRCANWEEKYLYIIELGQRLPELRDEDRSPQNSIQGAQSQVWIVMRQNAQGIIELQGDSDAAIVKGLIAVVFILYDQMTPQDIVNFDVRPWFCKMALTQHLTPSKSQGLEAMIRAIRAKAAALS | 1600 | 900 | 
BODIPY-FL-labeled Q121A EcSufE in the C51A/E107C background (natural protein, Escherichia coli, BODIPY-FL maleimide label (labeling efficiency 60 to 80%), EcSufE of Escherichia coli, UniProt P76194, with C51A, E107C and Q121A; also called Q121A SufE; source: E. coli BL21(DE3)Δsuf, pET21, purified, labeled with BODIPY-FL maleimide) MALLPDKEKLLRNFLRCANWEEKYLYIIELGQRLPELRDEDRSPQNSIQGAQSQVWIVMRQNAQGIIELQGDSDAAIVKGLIAVVFILYDQMTPQDIVNFDVRPWFCKMALTQHLTPSRSAGLEAMIRAIRAKAAALS | 5900 | 3600 | 
BODIPY-FL-labeled Q121E EcSufE in the C51A/E107C background (natural protein, Escherichia coli, BODIPY-FL maleimide label (labeling efficiency 60 to 80%), EcSufE of Escherichia coli, UniProt P76194, with C51A, E107C and Q121E; also called Q121E SufE; source: E. coli BL21(DE3)Δsuf, pET21, purified, labeled with BODIPY-FL maleimide) MALLPDKEKLLRNFLRCANWEEKYLYIIELGQRLPELRDEDRSPQNSIQGAQSQVWIVMRQNAQGIIELQGDSDAAIVKGLIAVVFILYDQMTPQDIVNFDVRPWFCKMALTQHLTPSRSEGLEAMIRAIRAKAAALS | 7000 | 500 | 
C51A/E107C EcSufE (unlabeled, crystallised) (natural protein, Escherichia coli, EcSufE of Escherichia coli, UniProt P76194, with C51A and E107C; also called SufE C51A/E107C; SufE (C51A, E107C)) MALLPDKEKLLRNFLRCANWEEKYLYIIELGQRLPELRDEDRSPQNSIQGAQSQVWIVMRQNAQGIIELQGDSDAAIVKGLIAVVFILYDQMTPQDIVNFDVRPWFCKMALTQHLTPSRSQGLEAMIRAIRAKAAALS |  |  | stoichiometry N [3]: 1
B1 |  |  | binding result [4]: binds
